From PMC5940254 (The Journal of General Physiology, 2018)
Where two headings read alike, the source gives them in different places.

How the values were obtained:
Assay in all cases: single-molecule pull-down
[1] = target: Ci-VSP phosphatase-only protein (PDo) (Ciona intestinalis)
[2] = target: Ci-VSP phosphatase-only protein (PDo) (Ciona intestinalis); remark: listed apart in the source
[3] = target: Ci-VSP voltage-sensing domain only protein (VSDo) (Ciona intestinalis)
[4] = target: Ci-VSP voltage-sensing domain only protein (VSDo) (Ciona intestinalis); remark: listed apart in the source
[5] = target: the molecule itself

Ci-VSP phosphatase-only protein (PDo) (domain or fragment)
percent of spots bleaching in a single step [1]: 57% | percent of spots bleaching in two steps [1]: 34% | percent of spots bleaching in a single step [2]: 80% | stoichiometry N [2]: 2

Ci-VSP voltage-sensing domain only protein (VSDo) (domain or fragment)
percent of spots bleaching in a single step [3]: 37% | percent of spots bleaching in two steps [3]: 55% | percent of spots bleaching in a single step [4]: 65% | stoichiometry N [4]: 2

B1: TREK1 channel, HA- and/or GFP-tagged (dimer and monomer controls) (natural protein)
chain: MLASASRERPGYTAGVAAPDLLDPKSAAQNSKPRLSFSSKPTVLASRVESDSAINVMKWKTVSTIFLVVVLYLIIGATVFKALEQPQEISQRTTIVIQKQTFIAQHACVNSTELDELIQQIVAAINAGIIPLGNSSNQVSHWDLGSSFFFAGTVITTIGFGNISPRTEGGKIFCIIYALLGIPLFGFLLAGVGDQLGTIFGKGIAKVEDTFIKWNVSQTKIRIISTIIFILFGCVLFVALPAVIFKHIEGWSALDAIYFVVITLTTIGFGDYVAGGSDIEYLDFYKPVVWFWILVGLAYFAAVLSMIGDWLRVISKKTKEEVGEFRAHAAEWTANVTAEFKETRRRLSVEIYDKFQRATSVKRKLSAELAGNHNQELTPCRRTLSVNHLTSEREVLPPLLKAESIYLNGLTPHCAGEDIAVIENMK
stoichiometry N [5]: 2

B2: ASIC1A channel, HA- and GFP-tagged (trimer control) (natural protein)
chain: MELKTEEEEVGGVQPVSIQAFASSSTLHGLAHIFSYERLSLKRALWALCFLGSLAVLLCVCTERVQYYFCYHHVTKLDEVAASQLTFPAVTLCNLNEFRFSQVSKNDLYHAGELLALLNNRYEIPDTQMADEKQLEILQDKANFRSFKPKPFNMREFYDRAGHDIRDMLLSCHFRGEACSAEDFKVVFTRYGKCYTFNSGQDGRPRLKTMKGGTGNGLEIMLDIQQDEYLPVWGETDETSFEAGIKVQIHSQDEPPFIDQLGFGVAPGFQTFVSCQEQRLIYLPSPWGTCNAVTMDSDFFDSYSITACRIDCETRYLVENCNCRMVHMPGDAPYCTPEQYKECADPALDFLVEKDQEYCVCEMPCNLTRYGKELSMVKIPSKASAKYLAKKFNKSEQYIGENILVLDIFFEVLNYETIEQKKAYEIAGLLGDIGGQMGLFIGASILTVLELFDYAYEVIKHRLCRRGKCQKEAKRSSADKGVALSLDDVKRHNPCESLRGHPAGMTYAANILPHHPARGTFEDFTC
stoichiometry N [5]: 3
